Source: IntAct's records for PubMed 18256029

biological target: pdcd6_human PDCD6 (UniProt O75340)
Sequence (O75340 whole entry): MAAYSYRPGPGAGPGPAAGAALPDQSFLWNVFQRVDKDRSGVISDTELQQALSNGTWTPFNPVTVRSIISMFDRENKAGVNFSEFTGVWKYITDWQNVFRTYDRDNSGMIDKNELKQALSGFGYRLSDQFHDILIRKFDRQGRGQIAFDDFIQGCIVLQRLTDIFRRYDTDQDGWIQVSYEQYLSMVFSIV

Phospholipid scramblase 3 (Homo sapiens), Q9NRY6 F49A;F52A, sequence (Q9NRY6 whole entry F49A/F52A): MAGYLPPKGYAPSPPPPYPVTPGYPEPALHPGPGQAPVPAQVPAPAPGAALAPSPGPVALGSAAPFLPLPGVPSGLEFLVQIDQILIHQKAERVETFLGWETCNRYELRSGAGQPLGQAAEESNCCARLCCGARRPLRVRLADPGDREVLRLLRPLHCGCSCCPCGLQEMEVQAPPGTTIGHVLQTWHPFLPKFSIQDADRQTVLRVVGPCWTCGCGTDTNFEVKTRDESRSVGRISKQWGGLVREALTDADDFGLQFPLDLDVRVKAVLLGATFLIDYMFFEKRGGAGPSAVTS
Phospholipid scramblase 3 (Homo sapiens), Q9NRY6 P43A;P45A;P47A;P53A, sequence (Q9NRY6 whole entry P43A/P45A/P47A/P53A): as the sequence (Q9NRY6 whole entry F49A/F52A) above, with P43A, P45A, P47A, A49F, A52F, P53A counted along it
Phospholipid scramblase 3 (Homo sapiens), Q9NRY6 F49L, sequence (Q9NRY6 whole entry F49L): as the sequence (Q9NRY6 whole entry F49A/F52A) above, with A49L, A52F counted along it
Phospholipid scramblase 3 (Homo sapiens), Q9NRY6 F49Y, sequence (Q9NRY6 whole entry F49Y): as the sequence (Q9NRY6 whole entry F49A/F52A) above, with A49Y, A52F counted along it
Phospholipid scramblase 3 (Homo sapiens), Q9NRY6 F49A, sequence (Q9NRY6 whole entry F49A): as the sequence (Q9NRY6 whole entry F49A/F52A) above, with A52F counted along it

| Substance | effect of a mutation on the interaction |
| --- | --- |
| Phospholipid scramblase 3 (Homo sapiens), Q9NRY6 F49Y | decreasing interaction |
| Phospholipid scramblase 3 (Homo sapiens), Q9NRY6 F49L | decreasing interaction |
| Phospholipid scramblase 3 (Homo sapiens), Q9NRY6 F49A | decreasing interaction |
| Phospholipid scramblase 3 (Homo sapiens), Q9NRY6 P43A;P45A;P47A;P53A | decreasing interaction |
| Phospholipid scramblase 3 (Homo sapiens), Q9NRY6 F49A;F52A | disrupting interaction |
